Experimental findings from US7544477B2, “Circularly permutated, interaction-activated proteins” (KaloBios, Inc., priority 2000, dated 2009) are described below.

The target of assay [1] is hetero-dimerizing leucine zipper helix from the c-jun subunit of the AP-1 transcription factor. Put plainly: cell-based or functional assay.
Assay [2] deals with TG1 cells. In words: Activation of TEM-1 β-lactamase fragment complementation by disulfide-assisted fos-jun interaction (plating on ampicillin). The assay is classed as cell-based, E. coli. To be noted: without a stabilizing peptide; same expression conditions.
Procedure: Cysteines were added to the sequences of α197 and ω198, between the break-point termini and the linkers leading to the heterologous interactors.
Disulfide formation was made to be more dependent on the heterologous interaction by two modifications. First, disulfide formation can be inhibited by inclusion of a reducing agent in the growth medium. […] Secondly, the cysteines were shifted by one residue each away form the break-point and into the β-lactamase sequence, so that they became separated in the native fold by an additional ˜8 Å.

hetero-dimerizing leucine zipper helix from the c-jun subunit of the AP-1 transcription factor, sequence (P05412 280-308): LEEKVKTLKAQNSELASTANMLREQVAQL

In assay [1], “hetero-dimerizing leucine zipper helix from the c-fos subunit of the AP-1 transcription factor (peptide)” came in with a Hi Amp (max ampicillin with >10% plating), break-point A227/G228, +Fos/Jun of 50 µg/mL; a Hi Amp (max ampicillin with >10% plating), break-point A227/G228, +S-S, +Fos/Jun of 200 µg/mL; a Hi Amp (max ampicillin with >10% plating), break-point E63/E64, +S-S, +Fos/Jun of 25 µg/mL; a Hi Amp (max ampicillin with >10% plating), break-point E197/L198, +Fos/Jun of 50 µg/mL. Also, in assay [1], the Hi Amp (max ampicillin with >10% plating), break-point E197/L198, +S-S, +Fos/Jun was 100 µg/mL; the Hi Amp (max ampicillin with >10% plating), break-point G253/K254, +Fos/Jun turned out to be 50 µg/mL; the Hi Amp (max ampicillin with >10% plating), break-point G253/K254, +S-S, +Fos/Jun stood at 400 µg/mL; the Hi Amp (max ampicillin with >10% plating), break-point K215/V216, +Fos/Jun stood at 25 µg/mL. In addition, in assay [1], the Hi Amp (max ampicillin with >10% plating), break-point K215/V216, +S-S, +Fos/Jun was 100 µg/mL; the Hi Amp (max ampicillin with >10% plating), break-point N52/S53, +S-S, +Fos/Jun came to 25 µg/mL; the Hi Amp (max ampicillin with >10% plating), break-point P174/N175, +Fos/Jun stood at 50 µg/mL; the Hi Amp (max ampicillin with >10% plating), break-point P174/N175, +S-S, +Fos/Jun was found to be 200 µg/mL. Moreover, in assay [1], the Hi Amp (max ampicillin with >10% plating), break-point Q99/N100, +S-S, +Fos/Jun stood at 25 µg/mL; the activation index, break-point P174/N175, fos-jun with disulfide amounted to 1e+07; the activation index, α197/ω198 with break-point cysteines, 10 mM DTT, 100 µg/ml ampicillin was more than 1000 fold; the activation index, α197/ω198 with cysteines shifted by one residue, 50 µg/ml ampicillin was more than 100000. Besides, in assay [1], the ampicillin concentration of recovery, α197/ω198 with break-point tri-peptides, strain DH5α was 800 µg/mL; the ampicillin concentration of recovery, α197/ω198 with break-point tri-peptides, strain TG1 was 400 µg/mL; the plating efficiency on 25 µg/ml ampicillin, wild-type α197-jun + fos-ω198 was 30%; the plating efficiency on 50 µg/ml ampicillin, α197-fos + jun-ω198 alone was found to be 1%. Besides, in assay [1], the plating efficiency on 50 µg/ml ampicillin, α197-fos + jun-ω198 with GRE-trxA in trans was found to be 100%; the plating efficiency on 50 µg/ml ampicillin, α197/ω198 with cysteines shifted by one residue is 10%; the plating efficiency on 100 µg/ml ampicillin, wild-type α197-jun + fos-ω198 (colonies per cell) was less than 1e-06; the plating efficiency on 400 µg/ml ampicillin, break-point G253/K254, fos-jun with disulfide is more than 25%.

B1: wild-type TEM-1 β-lactamase: intact TEM-1 β-lactamase of E. coli (protein, UniProt P62593 24-286, looked up)
Beta-lactamase TEM: HPETLVKVKDAEDQLGARVGYIELDLNSGKILESFRPEERFPMMSTFKVLLCGAVLSRVDAGQEQLGRRIHYSQNDLVEYSPVTEKHLTDGMTVRELCSAAITMSDNTAANLLLTTIGGPKELTAFLHNMGDHVTRLDRWEPELNEAIPNDERDTTMPAAMATTLRKLLTGELLTLASRQQLIDWMEADKVAGPLLRSALPAGWFIADKSGAGERGSRGIIAALGPDGKPSRIVVIYTTGSQATMDERNRQIAEIGASLIKHW
Regarding B1, the “Ampicillin concentration on which cells plate” value in assay [2] is not above 1000 µg/mL.
